Measured values taken from patent US11213590B2, “SSTR-targeted conjugates and particles and formulations thereof” (priority 2016, dated 2022).
“And” between values parts separate entries of the source, which are not always exact repeats. Equal values may be shown once. Read-outs that look alike come from different tables or passages of the source.

Columns and labels:
[1] = Buffer screening for solution stability; format: physicochemical; conditions: acetate buffer versus citrate and phosphate buffers; pH range of 4.0 to 4.8
From the text: Conjugate 57 is a free flowing powder. The formulation development of Conjugate 57 was accomplished by screening conditions that would provide stability and tonicity to the drug product solution. […] The buffer is formed by a combination of sodium acetate and acetic acid. In summary, acetate buffer, a commonly used parenteral buffer, is used to dissolve Conjugate 57 and ensure stability at a pH range of 4.0 to 4.8.

SSTR1 = SSTR1 (Homo sapiens, UniProt P30872); test: Affinity profile (half-maximal inhibitory concentration), SSTR1; format: binding
From the text: (§1) DOTATE, also known as DOTA-TATE or DOTA-octreotate, comprises an amide of the acid DOTA, which connects a radionuclide and (Tyr3)-octreotate, a derivative of octreotide. DOTATOC, also known as edotreotide, SMT487, or (DOTA^0-Phe^1-Tyr^3)octreotide, is also an octreotide derivative which can be bound to radionuclides for diagnosis and treatment.

[2] = Conversion of impurities back into Conjugate 57 in acetate buffer; format: physicochemical
Procedure: Two impurities present in Conjugate 57 with RRT at 1.69 and 1.70, referred to herein as Impurity A and B respectively, were identified as Conjugate 57 adducts. […] The rate of conversion of these two compounds back into Conjugate 57 is dependent on temperature. Data are provided in Table 11A and Table 11B showing this conversion at room temperature and 40° C.

NCI-H727 = test: cells; format: cell-based, human; conditions: for IC50: assay duration 72 h
Procedure: (§2) The purpose of this study was to determine the receptor-dependent inhibition of proliferation in vitro by the somatostatin targeting conjugate Conjugate 57 and determine the sensitivity to DM1 in the human SSTR2 expressing cancer cell lines: NCI-H69, NCI-H82, NCI-H727 and HCC-33. Cells were incubated with Conjugate 57 for 6 hours, in the presence or absence of an excess of octreotide, a somatostatin analogue. A three-fold serial dilution of Conjugate 57 was used for a total of ten concentration points. After treatment, cells were washed, incubated for an additional period of time, either 72 or 96 hours and proliferation was measured using the CellTiter-Glo® Luminescent Cell Viability Assay. The IC50 of Conjugate 57 was used to determine the inhibiting activity in proliferation assays. To determine DM1 sensitivity a similar method to the Conjugate 57 assay was employed with the additional incubation time points of 30 minutes, 1, 2, and 4 hours and the exclusion of the pre-treatment with octreotide. DM1 effect from the most to least sensitive cell line was determined to be: NCI-H69>HCC-33>NCI-H82>NCI-H727 (Table 5B). […] The addition of excess octreotide (100 μM) competes with Conjugate 57 for binding to the SSTR2 receptor. […] In the NCI-H69 experiments, pre-incubation with an excess of octreotide modestly diminished the activity of Conjugate 57 by 1.6 and 2.4 fold, depending on the assay conditions. In the HCC-33 cell line, activity of Conjugate 57 was 3.2 (±1.4) times higher when dosed alone, compared to when the cells were pre-incubated with octreotide. The small but measureable changes in Conjugate 57 activity in the presence of excess octreotide seen in the NCI-H69 and HCC-33 cell lines supports the receptor dependence of the Conjugate 57 antiproliferative effect seen in vitro. In summary, although all the cell lines tested in these experiments express the SSTR2 protein, they have different levels of sensitivity to the Conjugate 57 conjugate of which the DM1 sensitivity may be a contributing factor.

NCI-H69 = test: cells; format: cell-based, human; conditions: for IC50: 5,000 cells/well
Procedure: as §2

NCI-H82 = test: cells; format: cell-based, human; conditions: for IC50: assay duration 72 h
Procedure: as §2

hERG = hERG (Homo sapiens, UniProt Q12809); test: hERG ion channel inhibition, IonWorks Quattro patch clamp; format: cell-based; conditions: human; all concentrations tested (0.005 μM to 10 μM); 600 seconds incubation
Procedure: (§3) The purpose of this study was to evaluate the potential of Conjugate 57 to prolong the QT interval via modulation of the ion channel, human Ether-á-go-go Related Gene (hERG). The potential inhibition of the ion channel activity by Conjugate 57 was tested using an IonWorks Quattro electrophysiological platform, which is an automated high-throughput patch clamp system. Conjugate 57 was tested at eight different concentrations, starting at a high concentration of 10 μM and a low concentration of 0.005 μM with a minimum of five replicates for each concentration. hERG currents were evoked by a three pulse protocol where voltage was first stepped to +40 mV for two seconds from a holding potential of −80 mV to inactivate hERG channels. The voltage is then stepped back to −50 mV for two seconds to evoke a tail current prior to returning to the holding potential for 1 second. The voltage protocol was applied (Pre), compounds added, incubated for 600 seconds, and the voltage protocol was applied a final time (Post) on the IonWorks Quattro.

[3] = biological target: human Ether-á-go-go-Related Gene (hERG) ion channel (Homo sapiens, UniProt Q12809); test: as above; format: cell-based; conditions: IonWorks Quattro; up to 10 μM
Procedure: as §3

SSTR3 = SSTR3 (Homo sapiens, UniProt P32745); test: Affinity profile (half-maximal inhibitory concentration), SSTR3; format: binding
From the text: as §1

[4] = 5,000 cells/well, excess octreotide (100 μM), read-out: Inhibition of Proliferation IC50 With Octreotide
[5] = 5,000 cells/well, read-out: Inhibition of Proliferation IC50 Without Octreotide
[6] = 10,000 cells/well, excess octreotide (100 μM), read-out: Inhibition of Proliferation IC50 With Octreotide
[7] = 10,000 cells/well, read-out: Inhibition of Proliferation IC50 Without Octreotide

Sequence of SSTR3 (P32745 whole entry): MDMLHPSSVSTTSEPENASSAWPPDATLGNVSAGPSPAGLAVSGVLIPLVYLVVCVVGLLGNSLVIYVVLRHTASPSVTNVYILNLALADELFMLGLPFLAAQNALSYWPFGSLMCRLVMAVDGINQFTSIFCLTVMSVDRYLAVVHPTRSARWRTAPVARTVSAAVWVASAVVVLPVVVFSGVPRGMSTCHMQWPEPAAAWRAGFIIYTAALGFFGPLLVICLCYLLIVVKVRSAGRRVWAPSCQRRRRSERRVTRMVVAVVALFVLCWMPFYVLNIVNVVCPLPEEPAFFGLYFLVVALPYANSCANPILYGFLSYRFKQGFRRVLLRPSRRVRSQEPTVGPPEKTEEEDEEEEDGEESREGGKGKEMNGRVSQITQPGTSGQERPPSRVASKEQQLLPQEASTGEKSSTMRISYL
Sequence of hERG (Q12809 whole entry): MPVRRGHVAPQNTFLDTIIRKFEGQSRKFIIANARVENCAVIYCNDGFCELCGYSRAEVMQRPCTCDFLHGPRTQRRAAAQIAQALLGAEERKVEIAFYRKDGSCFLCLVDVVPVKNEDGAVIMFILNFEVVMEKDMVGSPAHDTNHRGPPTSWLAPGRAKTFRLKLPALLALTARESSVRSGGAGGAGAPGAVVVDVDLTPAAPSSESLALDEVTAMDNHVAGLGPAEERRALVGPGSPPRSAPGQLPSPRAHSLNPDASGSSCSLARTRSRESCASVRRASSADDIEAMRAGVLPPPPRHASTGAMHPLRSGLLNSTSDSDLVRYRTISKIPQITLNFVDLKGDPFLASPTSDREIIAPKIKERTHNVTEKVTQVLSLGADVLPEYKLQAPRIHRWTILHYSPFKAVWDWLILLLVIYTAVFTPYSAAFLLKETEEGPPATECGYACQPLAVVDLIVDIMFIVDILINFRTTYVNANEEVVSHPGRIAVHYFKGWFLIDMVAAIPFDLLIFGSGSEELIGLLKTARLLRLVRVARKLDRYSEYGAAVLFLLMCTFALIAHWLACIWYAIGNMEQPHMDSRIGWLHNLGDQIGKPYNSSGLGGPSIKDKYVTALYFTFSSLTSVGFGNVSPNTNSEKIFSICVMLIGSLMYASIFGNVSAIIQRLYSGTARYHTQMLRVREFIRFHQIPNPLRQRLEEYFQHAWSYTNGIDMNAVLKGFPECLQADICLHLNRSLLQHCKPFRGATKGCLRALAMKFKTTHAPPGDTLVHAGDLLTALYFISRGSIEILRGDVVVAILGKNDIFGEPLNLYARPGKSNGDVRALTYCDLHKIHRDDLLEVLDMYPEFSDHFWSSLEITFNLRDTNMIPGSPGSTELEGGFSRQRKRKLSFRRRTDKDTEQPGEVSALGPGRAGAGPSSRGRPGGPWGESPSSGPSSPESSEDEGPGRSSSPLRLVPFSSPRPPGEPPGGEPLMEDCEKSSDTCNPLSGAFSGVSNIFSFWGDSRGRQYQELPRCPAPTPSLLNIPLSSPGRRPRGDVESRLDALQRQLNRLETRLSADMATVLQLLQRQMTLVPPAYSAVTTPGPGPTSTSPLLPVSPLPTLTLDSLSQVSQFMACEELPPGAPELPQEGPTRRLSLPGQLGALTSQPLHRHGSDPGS
Sequence of human Ether-á-go-go-Related Gene (hERG) ion channel (Q12809 whole entry): as above
Sequence of SSTR1 (P30872 whole entry): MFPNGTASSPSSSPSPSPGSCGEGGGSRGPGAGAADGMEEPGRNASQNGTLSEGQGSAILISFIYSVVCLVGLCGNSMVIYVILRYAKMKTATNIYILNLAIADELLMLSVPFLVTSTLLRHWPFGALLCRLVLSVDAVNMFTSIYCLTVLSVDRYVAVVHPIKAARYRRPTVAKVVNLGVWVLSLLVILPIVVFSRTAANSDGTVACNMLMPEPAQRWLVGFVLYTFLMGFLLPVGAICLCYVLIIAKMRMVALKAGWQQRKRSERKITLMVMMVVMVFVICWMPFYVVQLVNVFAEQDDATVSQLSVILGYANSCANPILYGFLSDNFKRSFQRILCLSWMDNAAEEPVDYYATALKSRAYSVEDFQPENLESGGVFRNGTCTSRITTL

With `COc1cc2cc(c1Cl)N(C)C(=O)C[C@H](OC(=O)[C@H](C)N(C)C(=O)CCSSC[C@H](NC(=O)[C@@H]1CSSC[C@H](NC(=O)[C@H](N)Cc3ccccc3)C(=O)N[C@@H](Cc3ccc(O)cc3)C(=O)N[C@H](Cc3c[nH]c4ccccc34)C(=O)N[C@@H](CCCCN)C(=O)N[C@@H]([C@@H](C)O)C(=O)N1)C(N)=O)[C@]1(C)O[C@H]1[C@H](C)[C@@H]1C[C@@](O)(NC(=O)O1)[C@H](OC)/C=C/C=C(\C)C2` [Conjugate 57] the “solution stability by buffer” value [1] was “most stability”, the IC50 (SSTR1) was 380 nM and the “Total (sum of Conjugate 57 and impurities A and B)” value (“Total” below) ([2]; 40° C., 0 hr) was 98.6%. The “content during conversion of impurities” value ([2]; 40° C., 0 hr) was 94.6%, the “Total” value ([2]; 40° C., 1.4 hr) was 98.7% and the “content during conversion of impurities” value ([2]; 40° C., 1.4 hr) was 97.9%. The “Total” value ([2]; 40° C., 8.4 hr) was 98.8%, the “content during conversion of impurities” value ([2]; 40° C., 8.4 hr) was 98.5% and the “Total” value ([2]; room temperature, 0 hr) was 98.6%. The “content during conversion of impurities” value ([2]; room temperature, 0 hr) was 94.6%, the “Total” value ([2]; room temperature, 9.0 hr) was 98.7% and the “content during conversion of impurities” value ([2]; room temperature, 9.0 hr) was 97.8%. The “Total” value ([2]; room temperature, 11.6 hr) was 98.8%, the “content during conversion of impurities” value ([2]; room temperature, 11.6 hr) was 98.1% and the “Total” value ([2]; room temperature, 14.8 hr) was 98.8%. For the same molecule, the “content during conversion of impurities” value ([2]; room temperature, 14.8 hr) was 98.3%, the “Total” value ([2]; room temperature, 16.7 hr) was 98.8% and the “content during conversion of impurities” value ([2]; room temperature, 16.7 hr) was 98.3%. The IC50 (NCI-H727; [4]) was 810 nM, the IC50 (NCI-H727; [5]) was 3240 nM and the IC50 (NCI-H727; [6]) was 1900 nM. The IC50 (NCI-H727; [7]) was 2690 nM, the “activity in the presence of excess octreotide” value (NCI-H727; octreotide 100 μM) was “not decreased” and the IC50 (NCI-H69; assay duration 72 h, 6 h treatment, read-out: Inhibition of Proliferation IC50 Without Octreotide) was 108 nM. It also gave an IC50 (NCI-H69; assay duration 72 h, excess octreotide (100 μM), read-out: Inhibition of Proliferation IC50 With Octreotide) of 258 nM, an IC50 (NCI-H69; assay duration 96 h, 6 h treatment, read-out: Inhibition of Proliferation IC50 Without Octreotide) of 167 nM and an IC50 (NCI-H69; assay duration 96 h, excess octreotide (100 μM), read-out: Inhibition of Proliferation IC50 With Octreotide) of 271 nM. For the same molecule, the “decrease of activity by pre-incubation with excess octreotide” value (NCI-H69; depending on the assay conditions) was 1.6 fold and 2.4 fold, the IC50 (NCI-H82; [4]) was 128 nM and the IC50 (NCI-H82; [5]) was 106 nM. For the same molecule, the IC50 (NCI-H82; [6]) was 1290 nM, the IC50 (NCI-H82; [7]) was 1050 nM and the “activity in the presence of excess octreotide” value (NCI-H82; octreotide 100 μM) was “not decreased”. The inhibition at 600 seconds (hERG) was under 20%, the “hERG ion channel inhibition (in words)” value [3] was “did not inhibit” and the IC50 (SSTR3) was 58 nM.
